Results taken from US20130337002A1.

What was measured:
Experiment in all cases: REVEAL MHC-peptide binding
HLA-A11 = target: HLA-A11
HLA-A1 = target: HLA-A1
HLA-A24 = target: HLA-A24
HLA-A29 = target: HLA-A29
HLA-A2 = target: HLA-A2
HLA-A3 = target: HLA-A3
HLA-B14 = target: HLA-B14
HLA-B15 = target: HLA-B15
HLA-B27 = target: HLA-B27
HLA-B35 = target: HLA-B35
HLA-B7 = target: HLA-B7
HLA-B8 = target: HLA-B8

Substance | % of positive control (HLA-A11) [%] | % of positive control (HLA-A1) [%] | % of positive control (HLA-A24) [%] | % of positive control (HLA-A29) [%] | % of positive control (HLA-A2) [%] | % of positive control (HLA-A3) [%] | % of positive control (HLA-B14) [%] | % of positive control (HLA-B15) [%] | % of positive control (HLA-B27) [%] | % of positive control (HLA-B35) [%] | % of positive control (HLA-B7) [%] | % of positive control (HLA-B8) [%]
AEL[Nle]GYIPL (peptide) | 3.61 | 16.6 | 0.37 | 20.8 | 7.49 | 3.05 | 0.12 | 10.2 | 0.77 | 1.91 | 1.11 | 14.7
EL[Nle]GYIPLI (peptide) | 3.21 | 18.3 | 0.92 | 20.9 | 97.9 | 4.54 | 0.14 | 8.91 | 0.67 | 2.55 | 0.68 | 17.1
GP[Cit]IGVRAT (peptide) | 2.72 | 18.6 | 0.16 | 11.9 | 9.16 | 3.48 | 0.13 | 7.29 | 0.59 | 2.25 | 5.38 | 9.99
L[Nle]GYIPLIG (peptide) | 2.48 | 14.3 | 0.71 | 25.9 | 49.5 | 3.98 | 0.15 | 14.6 | 0.73 | 2.85 | 0.89 | 17.3
P[Cit]IGVRAT[Cit] (peptide) | 1.72 | 18.8 | 0.21 | 14.1 | 7.36 | 2.52 | 0.19 | 12.6 | 0.94 | 2.45 | 1.91 | 9.47
[Cit]IGVRAT[Cit]R (peptide) | 8.27 | 19.7 | 0.5 | 16.7 | 8.17 | 25.2 | 0.17 | 14.4 | 0.86 | 8.51 | 14.6 | 12.1
[Nle]GYIPLIGA (peptide) | 7.27 | 17.9 | 1.33 | 27.9 | 10.4 | 3.13 | 0.29 | 11.1 | 1.42 | 5.89 | 1.78 | 21.4
